{"source": "paper PMC3722153", "about": "“Refolding of a Thermostable Glyceraldehyde Dehydrogenase for Application in Synthetic Cascade Biomanufacturing” (PLoS ONE, 2013)", "key": {"[1]": {"molecular_target": "the molecule itself", "assay": "SEC; Superdex 200 gel filtration, calibrated with molecular mass standards; 50 mg lyophilized TaAlDH dissolved in 10 mL 20 mM TRIS pH 8; soluble and refolded preparations"}, "[2]": {"substrate": "NC(=O)c1ccc[n+]([C@@H]2O[C@H](COP(=O)(O)OP(=O)(O)OC[C@H]3O[C@@H](n4cnc5c(N)ncnc54)[C@H](OP(=O)(O)O)[C@@H]3O)[C@@H](O)[C@H]2O)c1", "assay": "purified protein", "assay_type": "biochemical, Thermoplasma acidophilum", "settings": "5 mM D-glyceraldehyde, 0-0.24 mM NADP+, 100 mM HEPES pH 6.2, 50°C, refolded enzyme 0.02 mg/mL, apparent, varied: cofactor", "source_text": "(§1) (glyceraldehyde dehydrogenase, aldehyde dehydrogenase from Thermoplasma acidophilum)"}, "[3]": {"substrate": "NC(=O)c1ccc[n+]([C@@H]2O[C@H](COP(=O)(O)OP(=O)(O)OC[C@H]3O[C@@H](n4cnc5c(N)ncnc54)[C@H](O)[C@@H]3O)[C@@H](O)[C@H]2O)c1", "assay": "purified protein", "assay_type": "biochemical, Thermoplasma acidophilum", "settings": "5 mM D-glyceraldehyde, 0-75 mM NAD+, 100 mM HEPES pH 6.2, 50°C, refolded enzyme 0.02 mg/mL, apparent, varied: cofactor", "source_text": "as §1"}}, "data": [{"protein": "glyceraldehyde dehydrogenase (aldehyde dehydrogenase) from Thermoplasma acidophilum (enzyme, UniProt Q9HK01 1-493, looked up, glyceraldehyde dehydrogenase (TaAlDH) of Thermoplasma acidophilum; calculated mass 56 kDa (56.4 kDa); they are written as one molecule; also called TaAlDH; AlDH; source: E. coli BL21 (DE3)) MDTKLYIDGQWVNSSSGKTVDKYSPVTGQVIGRFEAATRDDVDRAIDAAEDAFWAWNDLGSVERSKIIYRAKELIEKNRAELENIIMEENGKPVKEAKEEVDGVIDQIQYYAEWARKLNGEVVEGTSSHRKIFQYKVPYGIVVALTPWNFPAGMVARKLAPALLTGNTVVLKPSSDTPGSAEWIVRKFVEAGVPKGVLNFITGRGSEIGDYIVEHKKVNLITMTGSTATGQRIMQKASANMAKLILELGGKAPFMVWKDADMDNALKTLLWAKYWNAGQSCIAAERLYVHEDIYDTFMSRFVELSRKLALGDPKNADMGPLINKGALQATSEIVEEAKESGAKILFGGSQPSLSGPYRNGYFFLPTIIGNADQKSKIFQEEIFAPVIGARKISSVEEMYDLANDSKYGLASYLFTKDPNIIFEASERIRFGELYVNMPGPEASQGYHTGFRMTGQAGEGSKYGISEYLKLKNIYVDYSGKPLHINTVRDDLFQ", "values": [{"measurement": "stoichiometry N", "setting": "[1]", "result": 2}, {"measurement": "Km", "setting": "[2]", "result": "0.022 ± 0.001", "unit": "mM"}, {"measurement": "Vmax", "setting": "[2]", "result": 0.849, "unit": "µmol/min/mg"}, {"measurement": "Km", "setting": "[3]", "result": "22.13 ± 1.43", "unit": "mM"}, {"measurement": "Vmax", "setting": "[3]", "result": 1.86, "unit": "µmol/min/mg"}]}]}
